Earlier results as cited in publication PMC11743636.

Legend:
sgp130 (Homo sapiens) = sgp130 (Homo sapiens) (UniProt P40189)
sIL-6R (Homo sapiens) = sIL-6R (Homo sapiens) (UniProt P08887)
sIL-6R (Homo sapiens), sequence (P08887 20-355): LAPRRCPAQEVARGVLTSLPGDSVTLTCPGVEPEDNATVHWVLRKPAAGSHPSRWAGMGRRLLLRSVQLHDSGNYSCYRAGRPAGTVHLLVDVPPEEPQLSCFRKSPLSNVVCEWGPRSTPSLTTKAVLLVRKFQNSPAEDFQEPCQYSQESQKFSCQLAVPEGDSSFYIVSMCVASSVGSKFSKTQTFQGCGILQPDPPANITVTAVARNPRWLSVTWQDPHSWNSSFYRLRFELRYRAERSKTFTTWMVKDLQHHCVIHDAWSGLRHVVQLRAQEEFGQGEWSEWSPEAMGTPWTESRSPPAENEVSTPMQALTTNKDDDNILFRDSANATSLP

sgp130 (Homo sapiens), sequence (P40189 23-619): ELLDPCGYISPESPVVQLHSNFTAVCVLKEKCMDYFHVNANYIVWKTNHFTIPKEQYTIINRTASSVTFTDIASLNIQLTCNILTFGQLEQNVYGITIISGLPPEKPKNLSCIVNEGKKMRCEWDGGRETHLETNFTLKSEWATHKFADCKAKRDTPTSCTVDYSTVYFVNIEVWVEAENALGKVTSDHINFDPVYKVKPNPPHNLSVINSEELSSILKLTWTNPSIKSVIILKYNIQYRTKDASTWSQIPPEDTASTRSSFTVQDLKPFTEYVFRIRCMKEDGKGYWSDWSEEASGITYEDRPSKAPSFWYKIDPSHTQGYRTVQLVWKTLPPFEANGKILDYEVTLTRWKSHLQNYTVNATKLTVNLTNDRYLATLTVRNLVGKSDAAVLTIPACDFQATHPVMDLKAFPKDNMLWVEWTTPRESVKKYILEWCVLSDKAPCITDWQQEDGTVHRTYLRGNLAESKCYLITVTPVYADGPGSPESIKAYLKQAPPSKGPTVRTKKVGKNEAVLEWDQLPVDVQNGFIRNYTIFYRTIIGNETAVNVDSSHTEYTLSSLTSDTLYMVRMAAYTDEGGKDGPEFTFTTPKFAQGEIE

Kd (sgp130 (Homo sapiens)) [nM] | Kd (sIL-6R (Homo sapiens)) [nM] | Substance
0.05 |  | IL-6/sIL-6R complex (from UniProt P05231)
 | 0.5 | IL-6 (from UniProt P05231)
